The term Kd denotes the free concentration of one partner at which half of the binding sites on the other are occupied at equilibrium, for simple one-to-one binding.

In the assay the target is Fc-tagged human angiotensin-converting enzyme 2 (hACE2) (human) (UniProt Q9BYF1). As to the kind of experiment: BLI. In general terms: Biolayer interferometry detects binding as a change in optical thickness at a sensor tip.
“6× His-tagged S1 protein of SARS-CoV-2 Delta (B.1.617.2) variant (domain or fragment)” returned a Kd of 5.03 nM. As for “6× His-tagged S1 protein of SARS-CoV-2 Kappa (B.1.617.1) variant (domain or fragment)”, the dissociation constant (Kd) came out at 4.85 nM. Turning to “6× His-tagged S1 protein of SARS-CoV-2 Omicron (B.1.1.529) variant (domain or fragment)”, the Kd came to 7.4 nM.

Source of the values: PMC8828746.
